Like-named read-outs stand apart in the source and are kept apart here.
Tests used:
Assay in all cases: ELISA
[1] = target: T1, SARS-CoV-2 prefusion stabilized trimer protein (WIV02 isolate spike protein) (UniProt P0DTC2 14-1213)
[2] = target: SARS-CoV-1 spike protein (SARS-CoV-1, UniProt P59594 14-1195)
[3] = target: T1, SARS-CoV-2 prefusion stabilized trimer …; remark: listed apart in the source
[4] = target: SARS-CoV-2 receptor binding domain (UniProt P0DTC2 319-541)
[5] = target: SARS-CoV-2 S2 domain (UniProt P0DTC2 686-1213)

Binder	EC50 [1] [nM]	EC50 [2] [nM]	EC50 [3] [nM]	EC50 [4] [nM]	EC50 [5] [nM]
6-L8-A (antibody, V domains shown) VH: EVQLQQSVAELVRPGASVKLSCTPSGFNIKNTYMHWMKQRPEQGLEWIGRINPANDDTKYAPKFQDKATITADTSSNTAYLQLSSLTSEDTAIYYCVYDVRWYFDVWGTGTTVTVSS VL: DVVMTQTPLSLPVSLGDQASISCRSSQGLVHSNGNTYLHWYLQKPGQSPKLLIYKVSNRFSGVPDRFSGSGSGTDFTLKISRVEAEDLGVYFCSQSTHVPPTFGAGTKLELK	7.46	43.5	6.8		
4-K13-A (antibody, V domains shown) VH: QAYLQQSGAELVRPGASVKMSCKASGYTFTSYTVHWVKQTPRQGLEWIGAIYPGNVDTSYNQNFKGKATLTVDKSSSTAYMQLSSLTSEDSAVYFCARDGYYAMDYWGQGTSVTVSS VL: not shown	0.14			0.15	87
9-P9-A (antibody, V domains shown) VH: DVKLVESGEGLVKPGGSLKLSCAASGFSFSNFGMSWVRQTPEKRLEWVAYISSGGDYIYYADTVKGRFTISRDNARNTLYLQMSSLKSEDTAIYYCTRGYFDYWGQGTTLTVSS VL: DVLMTQTPLSLPVSLGDQASISCRSSQSIVHSNGNTYLEWYLQKPGQSPKLLIYTVSNRFSGVPDRFSGSGSGTDFTLKISRVEAEDLGVYYCFQGSHVPYTFGGGTKLEMR	0.05	0.06	0.05		0.04
4-C3-A (antibody, V domains shown) VH: EVQLQQSGPELVKPGASVKISCKASGYSFTGYYMHWVKQSHGNILDWIGYIYPYNGVSSYNQKFKGKATLTVDKSSSTAYMELRSLTSEASAVYYCARAYGSSYDYYYGLDYWGQGTSVTVSS VL: DIVLTQSPASLAVSLGQRATISCKASQSVDYDGAGYMNWYQQKPGQPPKLLISSASNLQSGIPARFSGSGSGTDFTLNIHPVEEEDAATYYCQQSNDDPYTFGGGTKLEIK	0.54		0.08		81.1
3-E13-A (antibody, V domains shown) VH: EVQLQQSGPELVKPGASVKMSCKASGYTFTDYNIHWVKQSHGKSLEWIGYINPNNGGTDYNQKFQGKATLTVNKSSSTAYMELRSLTSEDFAVYYCARGGFYGNYGAYYGMDFWGQGTSVTVSS VL: DIQMTQSPASLSASVGETVTITCRTSENIYSHLAWYQQTQGKSPQLLVYNAKTLAEGVPSRFSGSGSGTHFSLKINSLQPEDFGSYYCQHHYGIPPEFGGGTKLEIK	0.08	0.16	0.08		0.05
6-C19-A (antibody, V domains shown) VH: EVQLQQSGPELVKPGASVKMSCKASGYTFTDYNIHWVKQSHGKSLEWIGYINPNNGGTDYNQKFQGKATLTVDKSSSTAYMELRSLTSEDSAVYYCARGGFYGNYGSYYGMDFWGQGTSVTVSS VL: DIQMTQSPASLSASVGETVTITCRTSENIYSHLAWYQQTQGKSPHLLVYNAKTLAEGVPSRFSGSGSGTQFSLKINSLQPEDFGSYFCQHHYGIPPEFGGGTKLEIK	0.49	1.98	0.48		0.39
8-N24-A (antibody, V domains shown) VH: QVQLQQPGAELVKPGASVKVSCKASGYTFTSYWMHWVKQRPGQGLEWIGRIHPSDSDTNYYQKFKGKATLSVDKSSSTAYMQLSSLTSEDSAVYYCAIPLYSYDNSGGYYPMDYWGQGTSVTVSS VL: DIVMTQSQKFMSTSVGDRVTITCKASQNVRTAVAWYQQKPGQSPKKLIYLASNRHTGVPDRFTGSGSGTDFTLAISNVQSEDLADYFCLQHWNYPFTFGSGTRLEIK		59			4.43
9-L13-A (antibody, V domains shown) VH: QVQLKESGPGLVAPSQSLSITCTVSGFSLTSYAISWVRQPPGKGLEWLGLIWTGGGTNYNSALKSRLSISKDNSKSQIFLKMNSLQTDDTARYYCARGPPLIYYGDLYYFDYWGQGTTLTVSS VL: DIQMTQSPSSLSASLGGKVTITCKASQDINKYIAWYQHKPGKGPRLLIHYTSTLQPGIPSRFSGSGSGRDYSFSISNLEPEDIATYYCLQYDNLWTFGGGTKLEIK	8.45	6.31	8.18	26.9	
